In doi:10.1101/2021.08.16.456468, “Positive and negative control of helicase recruitment at a bacterial chromosome origin” (bioRxiv, 2021):
Residue numbers refer to the chain shown, from its start. Names and notes keep the numbering of the source.

B1: DnaD, wild type, purified (natural protein, B. subtilis, UniProt P39787 1-232, looked up)
chain: MKKQQFIDMQEQGTSTIPNLLLTHYKQLGLNETELILLLKIKMHLEKGSYFPTPNQLQEGMSISVEECTNRLRMFIQKGFLFIEECEDQNGIKFEKYSLQPLWGKLYEYIQLAQNQTQERKAEGEQKSLYTIFEEEFARPLSPLECETLAIWQDQDQHDAQLIKHALKEAVLSGKLSFRYIDRILFEWKKNGLKTVEQAKIHSQKFRRVQAKQNEPQKEYKRQVPFYNWLEQ
notes: DnaD, Bacillus subtilis, the full-length protein; tetramer of about 113 kDa by SEC-MALS (theoretical 110 kDa); also called wild-type DnaD; wild-type tetrameric DnaD
B2: DnaD^F6A, purified (natural protein, B. subtilis, UniProt P39787 1-232, looked up)
chain: B1 chain with F6A
notes: DnaD, Bacillus subtilis, with F6A; eluted as a 57 kDa species (dimer); The measured mass fits the whole protein
B3: DnaD^1-205, purified (domain or fragment, B. subtilis, UniProt P39787 1-205, looked up)
chain: MKKQQFIDMQEQGTSTIPNLLLTHYKQLGLNETELILLLKIKMHLEKGSYFPTPNQLQEGMSISVEECTNRLRMFIQKGFLFIEECEDQNGIKFEKYSLQPLWGKLYEYIQLAQNQTQERKAEGEQKSLYTIFEEEFARPLSPLECETLAIWQDQDQHDAQLIKHALKEAVLSGKLSFRYIDRILFEWKKNGLKTVEQAKIHSQK
notes: also called DnaD variant lacking the C-terminal tail
B4: DnaD^K3A (natural protein, B. subtilis, UniProt P39787 1-232, looked up)
chain: B1 chain with K3A
notes: DnaD, Bacillus subtilis, with K3A, used in BS^3 cross-linking

Experiments:
[1] = target: the molecule itself; experiment: SEC-MALS; purified DnaD variants, size exclusion chromatography followed by multiple angle light scattering
[2] = target: the molecule itself; experiment: cross-linking; amine-specific BS^3, SDS-PAGE, immunoblot

| Protein | stoichiometry N [1] | stoichiometry N [2] |
| --- | --- | --- |
| B1 | 4 |  |
| B2 | 2 |  |
| B3 | 4 |  |
| B4 |  | 2 |
